According to a protein production outcome set (Wang et al. 2014):

Experiment: label from the status in PepcDB records

Sequence | protein production
HLDASLQEVAEHAFGDYLGGLVALDPNTGGVLALVSKPGFDPNLFVDGIDPETWKSLNESPERPMVNRALRGIYPPGSTIKPLMALAGLELGLREPDDSIDDPGFFRLPNSQHRFRDWKPGGHGIVDLRRSISQSCDIYYYRLAVDMGIDRMHDYLTQFGLGQKTGIDLQGESSGLLPSRAWKQRRWKQPWYPGETVIAGIGQGYHLTTPLQLATMTAMLANGGKRIQPRLVDAVRDPHTRAWQTQAPVMLGEVAIDPENLAVVRQGMMDVTRPGGTAAASAAGAAYGIAGKTGTAQVVGIKQGARYDATRLAREHRDHALFVAYAPAENPVIAVAVMVENGGSGSGTAAPIARAVFDYYLTGKRPGTMKLETDDAAD | failed
MRAEADPEFAAVAERIHANVGRQGFMNLVGAELSELSRGTCTIAVERRPELLQQHGFFHGGVTAFLVDNATTIAAATSRGQPALTAEYKLNLLSPAVGEKLICRARVIKPGRQVSVVAADVFCVSDGVEKHTATALASIAMLSEDVAAKTKSPAA | failed
MTSTTTSQQELFRFLEDRFACAQACTECARACALRASLVDPDGTENQELVRRRGIMCAEVCDATCRVLSEQNQVDEAAIRAQLEWCRQVCLESAHVFDDHPGAEESAQACRDCARACGEFLATLR | failed
MKIIKRAIISLIILSLLISITMSNASASEELYYSVEYKNTATFNKLVKKKSLNVVYNIPELHVAQIKMTKMHANALANYKNDIKYINATCSTCITSEKTIDRTSNESLFSRQWDMNKITNNGASYDDLPKHANTKIAIIDTGVMKNHDDLKNNFSTDSKNLVPLNGFRGTEPEETGDVHDVNDRKGHGTMVSGQTSANGKLIGVAPNNKFTMYRVFGSKKTELLWVSKAIVQAANDGNQVINISVGSYIILDKNDHQTFRKDEKVEYDALQKAINYAKKKKSIVVAAAGNDGIDVNDKQKLKLQREYQGNGEVKDVPASMDNVVTVGSTDQKSNLSEFSNFGMNYTDIAAPGGSFAYLNQFGVDKWMNEGYMHKENILTTANNGRYIYQAGTSLATPKVSGALALIIDKYHLEKHPDKAIELLYQHGTSKNNKPFSRYGHGELDVYKALNVANQKAS | not failed
MLQLTRVSRLMNIHCGALMNLKQQYQTSLITDALLHSLQTHSVCTTPSETIDSALNSDGMDRQWMSFFYLPELNSTTVNKIKSILSSFTEVGYIEIDQQTHHLAIYHDGPITPIEKNLEKQGIDVVFQQTQANYIPEPIDWKQIKKRHQILSWLFSINLIMLMVTFFTGLIASSTALIALALIIMSDVMIYAMTLYGIHEKQIGLYKFTRVGLYLQISLSLLLILAVIFQSVLQHQPLAQLIILVAALAFFTMLINMYLLIQTQQERPDLLNFRQWFSFYDVMFSFAVIVAGICCLLFDSNWPDITITTLMVFFLLDRSRRVFKKKTSFVVQ | failed
MADFLLELRSEEIPAGLQKMAVEKLAELLSAKLKEAGINPTKIEKYATPRRIALLMRDLPAKTEAVQEERRGPRADAPEKALAGFLRSTGLTKEELELRETPKGNFYYAHIEKPGQTLIALLGEAIPAIIKTFPWPKSMRWGNFSASSESLRWVRPLKGIVALIDEQLIPIELDGITSGTETKGHPFHHPDVVTLAKASDYPEKMAAAHVMIDFDARVQKITDEARKAAQKAGLTLIEDAALAQENAGLTEWPVPLLGRFDEAYLAVPREVIQLTMRTNQKYFACTDRNQDLAAVFICVADMEAQDGGKEITQGNEKVLSARLADARFFWEQDLKIPLEDWLPRLDSVLFYEGMGSVGDKAKRIAHLSGYIADQIGADRKQAERAGLLAKADLASNMVGEFPELQGVMGGYYAKAGNEAPDVVSAVSGQYQAEAGAGVAAAVSLADRIDSLACFFVRNIRPTGSKDPFALRRAAVQIIQTIIAHQLRLPLTPLFEKAGAGDQIESLLAFITERLKVQQREAGIRYDLIDAVLALGYEDDVIRLLARVQALQSFIESEDGSDLLAGYRRAVNILKGSEASEKGDISQEDIEQPEQDLQKALQAIEAPLEQALKAEDYAAAMTALASLRQPIDQFFDKVIVNHDKAGIRSRRLALLEQIRTAMHQVADFSVVEALTIEASGRKR | failed
MSLWQPLVLVLLVLGCCFAAPRQRQSTLVLFPGDLRTNLTDRQLAEEYLYRYGYTRVAEMRGESKSLGPALLLLQKQLSLPETGELDSATLKAMRTPRCGVPDLGRFQTFEGDLKWHHHNITYWIQNYSEDLPRAVIDDAFARAFALWSAVTPLTFTRVYSRDADIVIQFGVAEHGDGYPFDGKDGLLAHAFPPGPGIQGDAHFDDDELWSLGKGVVVPTRFGNADGAACHFPFIFEGRSYSACTTDGRSDGLPWCSTTANYDTDDRFGFCPSERLYTRDGNADGKPCQFPFIFQGQSYSACTTDGRSDGYRWCATTANYDRDKLFGFCPTRADSTVMGGNSAGELCVFPFTFLGKEYSTCTSEGRGDGRLWCATTSNFDSDKKWGFCPDQGYSLFLVAAHEFGHALGLDHSSVPEALMYPMYRFTEGPPLHKDDVNGIRHLYGPRPEPEPRPPTTTTPQPTAPPTVCPTGPPTVHPSERPTAGPTGPPSAGPTGPPTAGPSTATTVPLSPVDDACNVNIFDAIAEIGNQLYLFKDGKYWRFSEGRGSRPQGPFLIADKWPALPRKLDSVFEEPLSKKLFFFSGRQVWVYTGASVLGPRRLDKLGLGADVAQVTGALRSGRGKMLLFSGRRLWRFDVKAQMVDPRSASEVDRMFPGVPLDTHDVFQYREKAYFCQDRFYWRVSSRSELNQVDQVGYVTYDILQCPED | not failed
MAAKICNRKNCKRSVQKMRIRSLLIILTIGLLLVNAICVSALGQTSESIARGDVYFGLMRYRDAIAWYKLDSTKAEAQWKIARAYVCYGDNAVPAEKEYNFRNAVRAANKCIELEETNANGHTWLAAALGNTAMYEGSKTKVRLCTQIKKELNRAIALNPKDDIAYSILGSFYREIGNISWLEKQLAMTFIGKIPDGTYEDSEKAFAKAIALNPTIMRHWYEQGLLYKYWNKNEQAIASFNKAKACPVFVSSDNKRLAAIEVYLKNLQ | failed
ELEPGAFSELYQRYRHCDAPICLYEQGRDSFEDEGRWRLILCATCGSHGTHRDCSSLRPNSKKWECNECLPA | not failed
SKKVIGKKRAHAEDDELDPMDPSSYSDAPRGGWVVGLKGVQPRAADTTASGPLFQQRPYPSPGAVLRRNAEVASSQKKKPNSQFTEITKRGDGSDGLGDAD | failed
MNFIIEPGSLADIDELERLYDELNDHLSATINYPGWIKGIYPVRENAAAGVDDNSLFVARCDGRIAGSVILDHQPEKAYENIVWKIDADYSYIFVVRTFVVHPSFLQMGVGHALMDFSLELALKSEMKSIRLDVYEKNLPAISLYEKCGFEYIDTVDLGLGHYGLDWFKLYEKVILEHHHHHH | not failed
THSETITIPVFDTQVAGTLLTPRAKLPGVLFVHGWGGSQRFDLSRARDIAGLGCICLTFDLRGHAATEAQRRQVTREDSLRDIMAAYDALIAHPAVDTSAIAVVGSSYGGYLAAILTTLRAVRWLALHVPALYRDDEWAQPKLQLDRAAISAYRHATVAPEGNRALSACSSFRGDVLIVEAEHDDYIPHSTIMSYRGAFLHSHSLTHRIVDGADHALSDKRCQQAYSSILLNWATEMV | failed
MIIGNCLILKDFSSEPFWGAVEIENGTIKRVLQGEVKVDLDLSGKLVMPALFNTHTHAPMTLLRGVAEDLSFEEWLFSKVLPIEDRLTEKMAYYGTILAQMEMARHGIAGFVDMYFHEEWIAKAVRDFGMRALLTRGLVDSNGDDGGRLEENLKLYNEWNGFEGRIFVGFGPHSPYLCSEEYLKRVFDTAKSLNAPVTIHLYETSKEEYDLEDILNIGLKEVKTIAAHCVHLPERYFGVLKDIPFFVSHNPASNLKLGNGIAPVQRMIEHGMKVTLGTDGAASNNSLNLFFEMRLASLLQKAQNPRNLDVNTCLKMVTYDGAQAMGFKSGKIEEGWNADLVVIDLDLPEMFPVQNIKNHLVHAFSGEVFATMVAGKWIYFDGEYPTIDSEEVKRELARIEKELYSS | not failed
MEINADFTKPVVIDTDQLEWRPSPMKGVERRMLDRIGGEVARATSIVRYAPGSRFSAHTHDGGEEFIVLDGVFQDEHGDYPAGTYVRNPPTTSHVPGSAEGCTIFVKLWQFDPADRTQFSKNMEAELGAPVEGISTSLLHEDERETVTHRKLEPGANLTSEAAGGIEVLVLDGDVTVNDEVLGRNAWLRLPEGEALSATAGARGAKIWMKTGHLRFVRTPEV | not failed
MRLRHLSDPDSLPALDKSFAIERPALGLAPDAPPVRILLLYGSLRARSFSRLAVEEAARLLQFFGAETRIFDPSDLPLPDQVQSDDHPAVKELRALSEWSEGQVWCSPERHGQITSVMKAQIDHLPLEMAGIRPTQGRTLAVMQVSGGSQSFNAVNTLRLLGRWMRMFTIPNQSSIAKAFQEFDAAGRMKPSPYYDRIADVMEELVRFTALVRPHREALTDRYSERKAAGHVIDEATDLSSIAIAPQPLPESETS | not failed
MSSLMMHCLIHVQELMNVKGIVVDELTGRSGPDHAKSLDPRTSLLRLITRPLGRVPPRESLDHFTRPPGRVSSPLPPSPSLDYILDVELQSLLHSALNQTLEHKEEKKTPAIHSTSHSTTLVEYSS | failed
MTKIMIIGANGGIAKKLTQRLLAETDDELVLFLRRAERLAQYREQPRVTLIDGNVLDTDELATAMAPVDIVYSNVGGTDLAAQTKSILAAMARTQRQRLIFISALGAHHEVPGKFGAWNEQAIADFLPGFREAARLLSASELVYTEIRPAWLTDVAEIDYELTTGAEPFKGTEVSRASVADLVFKLMAHPENYQRVSLGVDEPGTAGDRPSWLLEHHHHHH | failed
MSRFRSLLQASVNATKKALTWNVEEWVPPAEKHIFKFHSKEDLKKWHLYSDSEYGGLSSASLEIPDKGDGSDCTGVFSGNLSVDLSEGSKWNISRSGFCGMRSKKFDGFIDLDGYDAIALRIRGDGRCYISTIYTENWVNSPGQSEDNSWQAFVFAPKDSWYTAKIPLARYLPTWRGNVIDVEMEMNPGRVLGMSLSVNAEGGAVGAKSGAGDFRVEIDWIKALRLP | failed
MTTLLRNETPRRCAFWRGARGILAFVLALALTIQGVAPAWAFLGLGGFTIKDEVELGRKFDVLIKSRMPLVEDPEVKVYVQDIVARLLEQAPPQPFDFKTNVLLHNSLNAFASPGGFIFVHTGLVMQMDHEAEVAGVLAHELAHATQRHIAGRIEKMQTTSILSMAGALAGAFLGGGSGKGAAMAGSIAAGQSAMLNYSRVDETEADEIGLRYLIAAGFRPEGMVGAFEKIRKKQWAMGTDIPSYLSTHPAVNERINSLSARIAALPADIRSRPNDDARFLRVRTICRARYGDPAVSERLFADAPAGDCLAQLGKAILFSRQNRVAEATAAFDKALQCSPKDQLIWREAGRFHYTKGDKGRAAAMLQRATLMNPDDYMALFFYARLLADSGQPQKSYQYFDEVLRRLPEDAEVHYYYGRVLGASGQPFKAYLHLAYSSLYSNDKHKTESFEEQARAQARTPEEMAELERFAATYQERKAFW | failed
MGHHHHHHSHMHGWTWSVPKFMKRMKVPDYKDKAVFGVPLIVHVQRTGQPLPQSIQQALRYLRSNCLDQVGLFRKSGVKSRIHALRQMNENFPENVNYEDQSAYDVADMVKQFFRDLPEPLFTNKLSETFLHIYQYVSKEQRLQAVQAAILLLADENREVLQTLLCFLNDVVNLVEENQMTPMNLAVCLAPSLFHLNLL | failed
MINMTRKLYYEDAYLKEAKGRVLEIRDNAILLDQTIFYPTGGGQPHDRGTINGVEVLDVYKDEEGNVWHVVKEPEKFKVGDEVELKIDWDYRYKLMRIHTGLHLLEHVLNEVLGEGNWQLVGSGMSVEKGRYDIAYPENLNKYKEQIISLFNKYVDEGGEVKIWWEGDRRYTQIRDFEVIPCGGTHVKDIKEIGHIKKLKRSSIGRGKQRLEMWLE | not failed
MILKTLRNIFITIVVIAIIVIGGLFGLNAYSNQHPNNHSINDWNKLNPLAPTYEYYVKTQKPSKVEVVDKEKDFYIYHYNQTGYTKDGKSKKIEYTASKKLKQNHYLVVREKSHTIQSFEEVKKSKIPTKAKEKL | failed
